Data reported in paper PMC12583694, “RNF114 and RNF166 exemplify reader-writer E3 ligases that extend K11 polyubiquitin onto sites of MARUbylation” (The EMBO Journal, 2025).

Tests used:
[1] = biological target: T1, Ub-ADPr-TAMRA (fluorescent ester-linked Ub-ADPr conjugate) (human, UniProt P0CG47 1-76, C-terminus ester-linked to ADP-ribose (OP-ADPr, compound 8) that carries TAMRA (CuAAC with TAMRA-azide)); assay: fluorescence polarisation; TAMRA-labelled substrate fixed, unlabelled protein at a range of concentrations, mixed 1:1; 22 °C; 25 mM HEPES pH 7.4, 150 mM NaCl, 0.1 mg/mL BSA, 1 mM TCEP; 10 µL in 384-well plate; Kd by nonlinear regression of duplicate datasets (GraphPad Prism 10); details: both partners purified
T1 construct: ubiquitin, human (pET17b-Ub), wild type; observed mass of Ub 8564.4 Da; also called MARUbe probe; source: Ub purified as previously reported (Warren et al, 2023); coupled to OP-ADPr with DTX2, purified (Resource S), clicked to TAMRA-azide, purified (size exclusion)

Ub-Lys-TAMRA = biological target: T2, Ub-Lys-TAMRA (UniProt P0CG47 1-76, Ub is isopeptide-linked to a TAMRA-labeled Lys-Gly dipeptide (at the Ub C-terminus)); assay: as above; details: both partners purified
T2 construct: ubiquitin (the cut product of the polyubiquitin precursor); source: generated previously (Geurink et al, 2012)

Row | Binder | binding result [1] | binding result (Ub-Lys-TAMRA) | Kd [1] | Kd (Ub-Lys-TAMRA)
1 | RNF114 ΔUIM^ext (domain or fragment, human, UniProt Q9Y508 1-200, looked up, RNF114, human, truncated version that ends immediately after the Di19 domain at residue 200; No tag cleavage described; source: E. coli Rosetta, purified (Cobalt resin, gel filtration)) MAAQQRDCGGAAQLAGPAAEADPLGRFTCPVCLEVYEKPVQVPCGHVFCSACLQECLKPKKPVCGVCRSALAPGVRAVELERQIESTETSCHGCRKNFFLSKIRSHVATCSKYQNYIMEGVKATIKDASLQPRNVPNRYTFPCPYCPEKNFDQEGLVEHCKLFHSTDTKSVVCPICASMPWGDPNYRSANFREHIQRRHR | binds |  |  | 
2 | RNF114 M-UBD construct (residues 137–228) (domain or fragment, RNF114, human, residues 137-228 (RING domain and associated disordered regions removed); No tag cleavage described; also called tandem Di19-UIM module; source: E. coli Rosetta, purified (Cobalt resin, gel filtration)) not shown |  | binds |  | 
3 | RNF114 (wild type, full-length) (enzyme, human, UniProt Q9Y508 1-228, looked up, RNF114, human, RING-type E3 ubiquitin ligase; synthesised DNA cloned into pOPIN-B (N-terminal His-3C fusion); The methods describe no cleavage of the His-3C tag; also called WT RNF114; source: E. coli Rosetta, purified (Cobalt resin, gel filtration)) MAAQQRDCGGAAQLAGPAAEADPLGRFTCPVCLEVYEKPVQVPCGHVFCSACLQECLKPKKPVCGVCRSALAPGVRAVELERQIESTETSCHGCRKNFFLSKIRSHVATCSKYQNYIMEGVKATIKDASLQPRNVPNRYTFPCPYCPEKNFDQEGLVEHCKLFHSTDTKSVVCPICASMPWGDPNYRSANFREHIQRRHRFSYDTFVDYDVDEEDMMNQVLQRSIIDQ |  |  | 12.8 µM | ~20 µM
4 | RNF114 R198E (enzyme, human, UniProt Q9Y508 1-228, looked up, Made by site-directed mutagenesis of pOPINB-RNF114 WT; no tag cleavage described; source: E. coli Rosetta, purified (Cobalt resin, gel filtration)) MAAQQRDCGGAAQLAGPAAEADPLGRFTCPVCLEVYEKPVQVPCGHVFCSACLQECLKPKKPVCGVCRSALAPGVRAVELERQIESTETSCHGCRKNFFLSKIRSHVATCSKYQNYIMEGVKATIKDASLQPRNVPNRYTFPCPYCPEKNFDQEGLVEHCKLFHSTDTKSVVCPICASMPWGDPNYRSANFREHIQREHRFSYDTFVDYDVDEEDMMNQVLQRSIIDQ | binds | binds |  | 
5 | RNF114 F206E (enzyme, human, UniProt Q9Y508 1-228, looked up, RNF114, human, with a mutation in the linker between Di19 and UIM (modelled contact with the Ub I36 patch); Made by site-directed mutagenesis of pOPINB-RNF114 WT; no tag cleavage described; source: E. coli Rosetta, purified (Cobalt resin, gel filtration)) MAAQQRDCGGAAQLAGPAAEADPLGRFTCPVCLEVYEKPVQVPCGHVFCSACLQECLKPKKPVCGVCRSALAPGVRAVELERQIESTETSCHGCRKNFFLSKIRSHVATCSKYQNYIMEGVKATIKDASLQPRNVPNRYTFPCPYCPEKNFDQEGLVEHCKLFHSTDTKSVVCPICASMPWGDPNYRSANFREHIQRRHRFSYDTEVDYDVDEEDMMNQVLQRSIIDQ | binds | binds |  | 
6 | AF1521 macrodomain (natural protein, UniProt O28751 1-192, looked up, plasmid GST-AF1521 (gift from M. Nielsen); also called GST-AF1521; source: purified as previously reported (Kamata et al, 2019)) MEVLFEAKVGDITLKLAQGDITQYPAKAIVNAANKRLEHGGGVAYAIAKACAGDAGLYTEISKKAMREQFGRDYIDHGEVVVTPAMNLEERGIKYVFHTVGPICSGMWSEELKEKLYKAFLGPLEKAEEMGVESIAFPAVSAGIYGCDLEKVVETFLEAVKNFKGSAVKEVALVIYDRKSAEVALKVFERSL | binds | binds |  | 
7 | RNF166 (enzyme, human, UniProt Q96A37 1-237, looked up, RNF166, human, RING-type E3 ubiquitin ligase; synthesised DNA cloned into pOPIN-B (N-terminal His-3C fusion); No tag cleavage described; source: E. coli Rosetta, purified (Cobalt resin, gel filtration)) MAMFRSLVASAQQRQPPAGPAGGDSGLEAQYTCPICLEVYHRPVAIGSCGHTFCGECLQPCLQVPSPLCPLCRLPFDPKKVDKATHVEKQLSSYKAPCRGCNKKVTLAKMRVHISSCLKVQEQMANCPKFVPVVPTSQPIPSNIPNRSTFACPYCGARNLDQQELVKHCVESHRSDPNRVVCPICSAMPWGDPSYKSANFLQHLLHRHKFSYDTFVDYSIDEEAAFQAALALSLSEN | binds |  |  | 
8 | RNF138 (enzyme, human, UniProt Q8WVD3 1-245, looked up, RNF138, human, RING-type E3 ubiquitin ligase; synthesised DNA cloned into pOPIN-S3C (N-terminal His-SUMO-3C fusion); No tag cleavage described; source: E. coli Rosetta, purified (Cobalt resin, gel filtration; buffers at pH 8.0)) MAEDLSAATSYTEDDFYCPVCQEVLKTPVRTTACQHVFCRKCFLTAMRESGAHCPLCRGNVTRRERACPERALDLENIMRKFSGSCRCCAKQIKFYRMRHHYKSCKKYQDEYGVSSIIPNFQISQDSVGNSNRSETSTSDNTETYQENTSSSGHPTFKCPLCQESNFTRQRLLDHCNSNHLFQIVPVTCPICVSLPWGDPSQITRNFVSHLNQRHQFDYGEFVNLQLDEETQYQTAVEESFQVNI | binds |  |  | 
